Positions count from the first letter of the chain named. Numbers in names are those of the source.
T1: mouse PD-L2 with C-terminal biotin, Q9WUL5
T1 chain: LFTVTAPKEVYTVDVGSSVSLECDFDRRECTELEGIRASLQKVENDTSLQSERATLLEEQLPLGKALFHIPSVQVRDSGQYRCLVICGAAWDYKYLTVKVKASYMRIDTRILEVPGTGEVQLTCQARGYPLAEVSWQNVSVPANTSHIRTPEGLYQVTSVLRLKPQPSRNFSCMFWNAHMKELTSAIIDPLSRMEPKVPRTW

B1: mouse PD-1 wild type expressed on CHO cells, Q02242 A132K (protein)
chain: LEVPNGPWRSLTFYPAWLTVSEGANATFTCSLSNWSEDLMLNWNRLSPSNQTEKQAAFCNGLSQPVQDARFQIIQLPNRHDFHMNILDTRRNDSGIYLCGAISLHPKKKIEESPGAELVVTERILETSTRYPSPSPKPEGRFQGMVIGIMSALVGIPVLLLLAWALAVFCSTSMSEARGAGSKDDTLKEEPSAAPVPSVAYEELDFQGREKTPELPTACVHTEYATIVFTEGLGASAMGRRGSADGLQGPRPPRHEDGHCSWPL
B2: mouse PD-1 wild type expressed on CHO cells, Q02242 K131A (protein)
chain: B1 chain with K107A, K108A
B3: mouse PD-1 wild type expressed on CHO cells, Q02242 L128A; K131A (protein)
chain: B1 chain with L104A, K107A, K108A

Key:
[1] = target: T1, mouse PD-L2 with C-terminal biotin, …; assay: dynamic force spectroscopic analysis with BFP; details: chain shown with the change
[2] = target: T1, mouse PD-L2 with C-terminal biotin, …; assay: 2D effective affinity measurement, PD-L2-coated RBCs against PD-1-expressing CHO cells; details: chain shown with the change, parent: est. 0.00098, read off a plot
[3] = target: T1, mouse PD-L2 with C-terminal biotin, …; assay: bond lifetime vs force measurement, single bonds (BFP); details: chain shown with the change, read off a plot
[4] = target: T1, mouse PD-L2 with C-terminal biotin, …; assay: effective bond lifetime (bond lifetime x bond survival probability, BFP data); details: chain shown with the change, read off a plot

Binder	other: F1/2 (rupture force) ([1]; n = 270 events) [pN]	other: AcKa (2D effective affinity) ([2]; n = 12 cell pairs) [µm^4]	other: F1/2 (rupture force) ([1]; n = 210 events) [pN]	other: F1/2 (rupture force) ([1]; n = 345 events) [pN]	other: bond lifetime ([3]; force bin est. 2.2 pN) [s]	other: bond lifetime ([3]; force bin est. 4.3 pN) [s]	other: bond lifetime ([3]; force bin est. 11 pN) [s]	other: effective bond lifetime ([4]; force bin est. 2.2 pN) [s]	other: effective bond lifetime ([4]; force bin est. 4.3 pN) [s]	other: effective bond lifetime ([4]; force bin est. 8.3 pN) [s]	other: effective bond lifetime ([4]; force bin est. 11 pN) [s]	other: AcKa (2D effective affinity) ([2]; n = 13 cell pairs) [µm^4]
B1	9.5	0.00085										
B2		0.0011	9.4									
B3				9.7	0.16	0.15	0.05	0.16	0.14	0.04	0.015	0.00088
